Assay results from patent US20110301073.

Assays:
Settings in all cases: average of 3 experiments
[1] = test system: TALE repeat framework A8T (SEQ 405) repeat 5: A8T (Xanthomonas sp. (engineered))
[2] = test system: TALE repeat framework I9A (SEQ 406) repeat 5: I9A (Xanthomonas sp. (engineered))
[3] = test system: TALE repeat framework L25A (SEQ 418) repeat 5: L25A (Xanthomonas sp. (engineered))
[4] = test system: TALE repeat framework L25Q (SEQ 419) repeat 5: L25Q (Xanthomonas sp. (engineered))
[5] = test system: TALE repeat framework L26A (SEQ 420) repeat 5: L26A (Xanthomonas sp. (engineered))
[6] = test system: TALE repeat framework P27A (SEQ 421) repeat 5: P27A (Xanthomonas sp. (engineered))
[7] = test system: TALE repeat framework Q23A (SEQ 413) repeat 5: Q23A (Xanthomonas sp. (engineered))
[8] = test system: TALE repeat framework Q23K (SEQ 415) repeat 5: Q23K (Xanthomonas sp. (engineered))
[9] = test system: TALE repeat framework Q5A (SEQ 75) repeat 5: Q5A (Xanthomonas sp. (engineered))
[10] = test system: TALE repeat framework R24A (SEQ 417) repeat 5: R24A (Xanthomonas sp. (engineered))
[11] = test system: TALE repeat framework S11A (SEQ 409) repeat 5: S11A (Xanthomonas sp. (engineered))
[12] = test system: TALE repeat framework T21A (SEQ 411) repeat 5: T21A (Xanthomonas sp. (engineered))
[13] = test system: TALE repeat framework V6A (SEQ 76) repeat 5: V6A (Xanthomonas sp. (engineered))
[14] = test system: TALE repeat framework V7A (SEQ 403) repeat 5: V7A (Xanthomonas sp. (engineered))

Sequence “TTGACCATCCT (double strand) [CCA target]” has a binding signal (normalized ELISA) [1] of 0.82, a binding signal (normalized ELISA) [2] of 0.62 and a binding signal (normalized ELISA) [3] of 1.09. The binding signal (normalized ELISA) [4] was 0.9, the binding signal (normalized ELISA) [5] was 1 and the binding signal (normalized ELISA) [6] was 1.21. It also gave a binding signal (normalized ELISA) [7] of 0.91, a binding signal (normalized ELISA) [8] of 0.92 and a binding signal (normalized ELISA) [9] of 1.03. For the same sequence, the binding signal (normalized ELISA) [10] was 0.92, the binding signal (normalized ELISA) [11] was 0.9 and the binding signal (normalized ELISA) [12] was 1.05. The binding signal (normalized ELISA) [13] was 0.89 and the binding signal (normalized ELISA) [14] was 0.26.
